From article PMC11532496

B1: DH270 lineage intermediate I5.6 Fab (Fab, V domains shown)
VH: QVQLVQSGAEVKKPGASVKVSCKASGYTFTDYYIHWVRQAPGQGLEWMGWINPNTGRTNSAQKFQGRVTMTRDTSISTAYMELSRLRSDDTAVYYCARGGWIGLYYDSSGYPNFDYWGQGTLVTVSS
VL: QSALTQPASVSGSPGQSITISCTGTSYDVGSYNLVSWYQQHPGKAPKLMIYEVSKRPSGVSNRFSGSKSGNTASLTISGLQAEDEADYYCCSYAGSSTVVFGGGTKLTVL

Assays:
[1] = target: non-stabilized CE1 design Env SOSIP trimer (CH505.M5.G458Y N386R without F14 and 2P) (HIV-1) (UniProt Q2N0S6); assay: SPR
[2] = target: CH848-d949 DE3 design Env SOSIP trimer (N408K/N442A) (HIV-1); assay: SPR

Molecule | fold change of ka against CH505.M5.G458Y [1] | fold change of ka against the unmutated CH848-d949 trimer [2]
CH235.12 Fab | 2 fold | –
B1 | – | 45 fold
